This data set addresses T1, Aspergillus ochraceus 11 alpha hydroxylase.
T1 chain: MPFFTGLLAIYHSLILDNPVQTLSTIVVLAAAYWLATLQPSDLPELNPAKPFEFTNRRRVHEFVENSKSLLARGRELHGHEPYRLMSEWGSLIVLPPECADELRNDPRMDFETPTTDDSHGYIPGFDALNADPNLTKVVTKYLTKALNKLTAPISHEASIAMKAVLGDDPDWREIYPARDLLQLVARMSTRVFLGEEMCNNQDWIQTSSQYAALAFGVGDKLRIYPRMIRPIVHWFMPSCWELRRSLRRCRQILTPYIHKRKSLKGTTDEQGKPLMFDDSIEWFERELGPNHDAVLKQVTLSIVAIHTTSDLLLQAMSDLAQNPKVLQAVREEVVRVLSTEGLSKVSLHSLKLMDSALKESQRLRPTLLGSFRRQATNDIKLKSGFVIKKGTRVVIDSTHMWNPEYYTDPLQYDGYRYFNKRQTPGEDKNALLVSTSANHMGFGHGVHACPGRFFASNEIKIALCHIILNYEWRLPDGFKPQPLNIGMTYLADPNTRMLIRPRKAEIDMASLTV

B1: human oxidoreductase (protein)
chain: MGDSHVDTSSTVSEAVAEEVSLFSMTDMILFSLIVGLLTYWFLFRKKKEEVPEFTKIQTLTSSVRESSFVEKMKKTGRNIIVFYGSQTGTAEEFANRLSKDAHRYGMRGMSADPEEYDLADLSSLPEIDNALVVFCMATYGEGDPTDNAQDFYDWLQETDVDLSGVKFAVFGLGNKTYEHFNAMGKYVDKRLEQLGAQRIFELGLGDDDGNLEEDFITWREQFWPAVCEHFGVEATGEESSIRQYELVVHTDIDAAKVYMGEMGRLKSYENQKPPFDAKNPFLAAVTTNRKLNQGTERHLMHLELDISDSKIRYESGDHVAVYPANDSALVNQLGKILGADLDVVMSLNNLDEESNKKHPFPCPTSYRTALTYYLDITNPPRTNVLYELAQYASEPSEQELLRKMASSSGEGKELYLSWVVEARRHILAILQDCPSLRPPIDHLCELLPRLQARYYSIASSSKVHPNSVHICAVVVEYETKAGRINKGVATNWLRAKEPAGENGGRALVPMFVRKSQFRLPFKATTPVIMVGPGTGVAPFIGFIQERAWLRQQGKEVGETLLYYGCRRSDEDYLYREELAQFHRDGALTQLNVAFSREQSHKVYVQHLLKQDREHLWKLIEGGAHIYVCGDARNMARDVQNTFYDIVAELGAMEHAQAVDYIKKLMTKGRYSLDVWS
Consider B1, for which the “conversion of 4-androstene-3,17-dione (AD) to 11 alpha-hydroxy-AD, by HPLC” value is recorded as “successfully catalyzed the conversion of the steroid substrate 4-androstene-3,17-dione (AD) to 11 alpha-hydroxy-AD”.

Values taken from patent publication US20030148420.
